# Data from patent US20240043489A1, “Cytokine Prodrugs Comprising a Cleavable Linker” (Trutino Biosciences Inc., priority 2020, published 2024).
# Several values for one entry are separate records, joined by “and”; a condition that tells them apart may be missing. Equal entries are not always repeated. Entries after “also recorded” stand apart in the source; their conditions may differ.
# B1: Construct B: SEQ ID NO 101: m IL2-2x(SG4)-MMPcs1-2x(G4S)-IL2Ralpha-mIgG1 Fc (protein)
# chain: APTSSSTSSSTAEAQQQQQQQQQQQQHLEQLLMDLQELLSRMENYRNLKLPRMLTFKFYLPKQATELKDLQCLEDELGPLRHVLDLTQSKSFQLEDAENFISNIRVTVVKLKGSDNTFECQFDDESATVVDFLRRWIAFCQSIISTSPQSGGGGSGGGGGPLGVRGGGGGSGGGGSELCLYDPPEVPNATFKALSYKNGTILNCECKRGFRRLKELVYMRCLGNSWSSNCQCTSNSHDKSRKQVTAQLEHQKEQQTTTDMQKPTQSMHQENLTGHCREPPPWKHEDSKRIYHFVEGQSVHYECIPGYKALQRGPAISICKMKCGKTGWTQPQLTCVDEREHHRFLASEESQGSRNSSPESETSCPITTTDFPQPTETTAMTETFVLTMEYKGCKPCICTVPEVSSVFIFPPKPKDVLTITLTPKVTCVVVDISKDDPEVQFSWFVDDVEVHTAQTQPREEQFNSTFRSVSELPIMHQDWLNGKEFKCRVNSAAFPAPIEKTISKTKGRPKAPQVYTIPPPKEQMAKDKVSLTCMITDFFPEDITVEWQWNGQPAENYKNTQPIMDTDGSYFVYSKLNVQKSNWEAGNTFTCSVLHEGLHNHHTEKSLSHSPGK
# Tests used:
# collagen = experiment: IL-2 fusion protein collagen-agarose pulldown (immunoblot quantitation); assay type: binding
# Description: To test binding to collagen, a pulldown assay using agarose cross-linked to collagen (Sigma) was performed. IL-2 fusion proteins were incubated with collagen-agarose or control agarose beads for 18-22 h at 4C with gentle rotation in 1% BSA/PBS-0.05% Tween 20. After washing, proteins bound to the beads were eluted by resuspending beads in SDS sample buffer (Life Technologies). Bound proteins were then separated by SDS-PAGE on 4-12% BisTris gradient gel followed by immunoblotting with goat anti-mouse IL-2 polyclonal antibody (AF-402-NA; R&D systems). Donkey Anti-goat RP-conjugated antibody was used for detection (Jackson Immuno Research, West Grove, PA) and the blot was developed using the SuperSignal West Femto Maximum sensitivity detection reagent (ThermoFisher) following the manufacturer's recommendations.
# heparin = experiment: IL-2 fusion protein plate binding assay to Heparin-BSA conjugate
# Description: 96-well plates were coated with 25 ug/mL of Heparin-BSA conjugate (provided by Dr. Mueller, Boerhinger Ingelheim) or control BSA for 18-22 h at room temperature on shaker (350 rpm). After washing, wells are blocked with PBS-0.05% Tween 20/1% BSA for 90 min, then fusion proteins are titrated in 1% BSA/PBS-0.05% Tween 20 pH 7.5 and/or pH 6 and added for 2 hr at room temperature with shaking. After washing, an anti-mouse IL-2 biotin-labelled detection antibody (JES6-5H4, ThermoFisher) is added and binding is detected using Ultra Strepavidin HIRP (ThermoFisher). The plate was developed by adding the chromogenic tetramethylbenzidine substrate (Ultra TMB, ThermoFisher). The reaction is stopped by addition of 0.5M H2SO4 and the absorbance is read at 450-650 nm.
# [1] = test system: tumor infiltrating immune cells; experiment: Immune cell populations by immunohistochemistry in MC38 tumor samples; assay type: in vivo, mice; conditions: MC38 tumors, 10 mg/kg IV Q3D for 21 days
# Description: The objective of this study is to evaluate immune targets in tumor samples by IHC. See below for details: • CD4+Foxp3 double immunofluorescence staining • CD8, CD25, CD3, CD4 and CD335 single IHC staining
# 7 tumor samples were selected from the systemic in vivo efficacy study and formalin-fixed paraffin embedded (FFPE) blocks were prepared following standard embedding process.
# FFPE blocks were sectioned with a manual rotary microtome (4 μm thickness/section) and optimized IHC assay protocols for all the antibodies were used. All stained sections were scanned with NanoZoomer-S60 Image system with 40× magnification. High resolution picture for whole section was generated and further analyzed.
# Scoring Method: All the images were analyzed with HALO™ Image Analysis platform. The whole slide image was analyzed and necrosis area was excluded. The total cells and IHC positive cells were counted. IHC score is presented as the ratio of the positive cell counts against the total cell numbers within whole section and shown in FIG. 8.
# EMT06 = experiment: In vivo efficacy in EMT06 breast syngeneic model; set-up: species or system mice; conditions: EMT06, BALB/c, 20 mpk IV Q3D, D20
# Description: For the efficacy studies, C57BL/6 or BALB/c mice were subcutaneously inoculated with malignant cells and when the average tumor volume reached on average 90 mm^3, animals were randomized into 2 groups based on tumor volumes (n=10 mice per treatment group). Mice were dosed intravenously every 3 days (Q3D) at 20 mg/kg. Tumors, body weights and clinical observations were measured/collected twice a week for the duration of the study. Tumor volume is shown in FIGS. 10A-D, 11A, 12A, and 13B-C. […] Liver and kidney enzyme results corresponding to FIGS. 11A and 12A are shown in FIGS. 11B-D and 12B-D, respectively.
# MC38 tumor = experiment: Systemic IV injection in syngeneic MC38 colorectal cancer model; assay type: in vivo
# Description: The objective of this study is to evaluate efficacy of Construct B in the MC38-bearing female C57BL/6 mice. For this study, C57BL/6 6-8 weeks old female mice (Jackson Labs) were subcutaneously inoculated with MC38 cells (10^6 cells/animal), and when the average tumor volume reached about 80 mm^3, animals were randomized into 2 groups based on tumor volumes (8 mice per treatment group). Animals were dosed according to the following study design:
# Mice were dosed over a 21 day period then further observed for an additional week.
# B16F10 melanoma = experiment: In vivo efficacy of retention linker IL-2 drugs in B16F10 syngeneic model (Example 17); set-up: species or system mice
# Description: (§1) In a first efficacy study, C57BL/6 mice were subcutaneously inoculated with B16F10 melanoma cells and when the average tumor volume reached on average 70-90 mm^3, animals were randomized into 5 groups based on tumor volumes (n=6 mice per treatment group). Mice were dosed intravenously every 3 days (Q3D) for a total of 5 doses according to following design:
# as §1, with “second” for “first”, “study in the same model,” for “study,”
# On Day 20, mice received an additional dose of drug, animals were sacrificed 24 hrs later and tissues and blood (processed to serum) were collected and stored at −80C for further testing. […] This is most likely due to the higher levels of both circulating drugs in serum and resident drug in TME, which can exert prolonged anti-tumor activity even after an extended dosing holiday.
molecule,measurement,setting,value
B1,Bound,"collagen; blot quantitation, collagen-agarose bound fraction",2306
same,Normalized,collagen; bound fraction relative to Construct B (fold),1
same,Bound (% input),collagen; fraction bound to collagen-agarose,0.3%
same,heparin binding EC50 relative to Construct CC,heparin; fold higher EC50 value,> 100 fold
same,heparin binding (qualitative),"heparin; pH 6 vs pH 7.5, plate assay",much weaker
same,tumor infiltrating immune cells (IHC score) vs vehicle,[1],Significantly more immune cells of all tested types; also recorded: significant increase in tumor infiltrating immune cells
same,Max TGI %,EMT06,43%
same,adverse effect / systemic toxicity,MC38 tumor; 10 mpk IV Q3D for 21 D,Essentially no systemic toxicity; also recorded: no adverse effect
same,mouse body weight during treatment,MC38 tumor; 10 mpk IV Q3D for 21 D,substantially constant
same,tumor growth (qualitative),"MC38 tumor; IV Q3D, eight administrations, vs vehicle",virtually no tumor growth after initiation of treatment
same,inhibition of tumor growth / Max TGI %,"MC38 tumor; MC-38, C57BL/6, 10 mpk IV Q3D, Day 21",92%
same,complete tumor regressions ('cures'),"MC38 tumor; out of 8 cases, 10 mpk IV Q3D for 21 D",3
same,TGI (%) D 15,"B16F10 melanoma; 10 mg/kg IV Q3D, 5 doses",27% and 27.43%
same,efficacy after a dosing holiday of 7 days,"B16F10 melanoma; 10 mg/kg, Day 20",diminished efficacy
same,TGI (%) D 20,"B16F10 melanoma; 10 mg/kg, 7 days following the fifth dose",14.02%
same,TGI (%) D 13,"B16F10 melanoma; 20 mg/kg IV Q3D, 5 doses",61% and 61.43%
same,TGI (%) D 13,"B16F10 melanoma; 40 mg/kg IV Q3D, 5 doses",58.44%
same,TGI,B16F10 melanoma; Construct B treated groups regardless of dose (20 and 40 mg/kg),~60%
